In patent US20260022186A1:

Target: T1, human NT5E expressed on MDA-MB-231 cells (human) (UniProt P21589)
T1 sequence (looked up): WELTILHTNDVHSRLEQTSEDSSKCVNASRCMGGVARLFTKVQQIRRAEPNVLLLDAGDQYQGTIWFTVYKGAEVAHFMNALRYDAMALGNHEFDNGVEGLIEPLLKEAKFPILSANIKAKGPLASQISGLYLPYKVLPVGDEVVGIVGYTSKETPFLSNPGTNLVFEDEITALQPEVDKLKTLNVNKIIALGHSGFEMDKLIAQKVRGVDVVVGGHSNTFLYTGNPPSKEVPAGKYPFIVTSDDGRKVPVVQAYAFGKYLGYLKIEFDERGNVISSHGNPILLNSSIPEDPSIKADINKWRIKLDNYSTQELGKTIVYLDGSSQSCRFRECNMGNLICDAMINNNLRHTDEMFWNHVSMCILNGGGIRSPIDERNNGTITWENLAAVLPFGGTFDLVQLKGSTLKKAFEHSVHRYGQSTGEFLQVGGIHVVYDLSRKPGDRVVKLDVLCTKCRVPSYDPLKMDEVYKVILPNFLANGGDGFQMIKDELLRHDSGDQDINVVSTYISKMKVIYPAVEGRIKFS
Experiment: cell-based or functional assay

BMS986179 IgG (antibody) was tested, and the IC50 of inhibition of NT5E on MDA-MB-231 cells, ATP was 1.1 nM and the IC50 of inhibition of NT5E on MDA-MB-231 cells, no ATP was 0.6 nM.
